Starred links: 1 amine or outer side, 2 acyl side, 3 side chain; linkers in the order of their positions; H or OH if unused. Non-standard residues stand in square brackets, D forms with d. Groups on a side chain read outwards from the residue. No end group written: not given here. *: point of attachment. C18 diacid = O=C(O)CCCCCCCCCCCCCCCCC(=O)*; γGlu = O=C(O)[C@H](CCC(=O)[*:2])N[*:1]; Palmitoyl = CCCCCCCCCCCCCCCC(=O)*; AEEA = NCCOCCOCC(=O)O; Aib = CC(C)(N)C(=O)O
T1: CRF1R receptor (anti-target) (UniProt P34998 24-415, limits assumed)
T1 sequence (looked up): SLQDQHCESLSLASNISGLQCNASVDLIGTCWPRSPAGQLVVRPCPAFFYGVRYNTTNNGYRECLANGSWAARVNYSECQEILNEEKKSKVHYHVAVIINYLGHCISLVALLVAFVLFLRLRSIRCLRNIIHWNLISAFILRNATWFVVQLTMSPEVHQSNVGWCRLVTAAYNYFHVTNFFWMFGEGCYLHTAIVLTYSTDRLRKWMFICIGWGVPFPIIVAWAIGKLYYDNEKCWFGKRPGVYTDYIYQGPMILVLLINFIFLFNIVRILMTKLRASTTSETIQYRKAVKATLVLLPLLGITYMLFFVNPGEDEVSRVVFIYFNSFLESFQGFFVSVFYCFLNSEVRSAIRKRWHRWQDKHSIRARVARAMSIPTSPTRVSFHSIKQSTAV


molecular target: T1, CRF1R receptor (anti-target); assay: cell-based or functional assay

Row | Binder | EC50 [nM] 0% HSA (cAMP, HTRF) [nM] | Emax (%) (100% = Sauvagine at 100 nM)
1 | IVLSLD[dV]PTKLK([γGlu-Palmitoyl])KKLLKQERKRKEREKAEKAARILERV-NH2 (N-terminus assumed; SMILES CCCCCCCCCCCCCCCC(=O)N[C@@H](CCC(=O)NCCCC[C@H](NC(=O)[C@H](CC(C)C)NC(=O)[C@H](CCCCN)NC(=O)[C@@H](NC(=O)[C@@H]1CCCN1C(=O)[C@H](NC(=O)[C@H](CC(=O)O)NC(=O)[C@H](CC(C)C)NC(=O)[C@H](CO)NC(=O)[C@H](CC(C)C)NC(=O)[C@@H](NC(=O)[C@@H](N)[C@@H](C)CC)C(C)C)C(C)C)[C@@H](C)O)C(=O)N[C@@H](CCCCN)C(=O)N[C@@H](CCCCN)C(=O)N[C@@H](CC(C)C)C(=O)N[C@@H](CC(C)C)C(=O)N[C@@H](CCCCN)C(=O)N[C@@H](CCC(N)=O)C(=O)N[C@@H](CCC(=O)O)C(=O)N[C@@H](CCCNC(=N)N)C(=O)N[C@@H](CCCCN)C(=O)N[C@@H](CCCNC(=N)N)C(=O)N[C@@H](CCCCN)C(=O)N[C@@H](CCC(=O)O)C(=O)N[C@@H](CCCNC(=N)N)C(=O)N[C@@H](CCC(=O)O)C(=O)N[C@@H](CCCCN)C(=O)N[C@@H](C)C(=O)N[C@@H](CCC(=O)O)C(=O)N[C@@H](CCCCN)C(=O)N[C@@H](C)C(=O)N[C@@H](C)C(=O)N[C@@H](CCCNC(=N)N)C(=O)N[C@H](C(=O)N[C@@H](CC(C)C)C(=O)N[C@@H](CCC(=O)O)C(=O)N[C@@H](CCCNC(=N)N)C(=O)N[C@H](C(N)=O)C(C)C)[C@@H](C)CC)C(=O)O) [peptide of SEQ ID NO: 28] | > 100 | 8.4
2 | IVLSLD[dV]PTKLK([γGlu-Palmitoyl])KKLLKQERKRKERE[Aib]AEKAARILERV-NH2 (N-terminus assumed; SMILES CCCCCCCCCCCCCCCC(=O)N[C@@H](CCC(=O)NCCCC[C@H](NC(=O)[C@H](CC(C)C)NC(=O)[C@H](CCCCN)NC(=O)[C@@H](NC(=O)[C@@H]1CCCN1C(=O)[C@H](NC(=O)[C@H](CC(=O)O)NC(=O)[C@H](CC(C)C)NC(=O)[C@H](CO)NC(=O)[C@H](CC(C)C)NC(=O)[C@@H](NC(=O)[C@@H](N)[C@@H](C)CC)C(C)C)C(C)C)[C@@H](C)O)C(=O)N[C@@H](CCCCN)C(=O)N[C@@H](CCCCN)C(=O)N[C@@H](CC(C)C)C(=O)N[C@@H](CC(C)C)C(=O)N[C@@H](CCCCN)C(=O)N[C@@H](CCC(N)=O)C(=O)N[C@@H](CCC(=O)O)C(=O)N[C@@H](CCCNC(=N)N)C(=O)N[C@@H](CCCCN)C(=O)N[C@@H](CCCNC(=N)N)C(=O)N[C@@H](CCCCN)C(=O)N[C@@H](CCC(=O)O)C(=O)N[C@@H](CCCNC(=N)N)C(=O)N[C@@H](CCC(=O)O)C(=O)NC(C)(C)C(=O)N[C@@H](C)C(=O)N[C@@H](CCC(=O)O)C(=O)N[C@@H](CCCCN)C(=O)N[C@@H](C)C(=O)N[C@@H](C)C(=O)N[C@@H](CCCNC(=N)N)C(=O)N[C@H](C(=O)N[C@@H](CC(C)C)C(=O)N[C@@H](CCC(=O)O)C(=O)N[C@@H](CCCNC(=N)N)C(=O)N[C@H](C(N)=O)C(C)C)[C@@H](C)CC)C(=O)O) [peptide of SEQ ID NO: 29] | > 100 | 18.4
3 | IVLSLD[dV]PTKLK([γGlu-Palmitoyl])KKLLKQERKRKERE[Aib]AEKNARILERV-NH2 (N-terminus assumed; SMILES CCCCCCCCCCCCCCCC(=O)N[C@@H](CCC(=O)NCCCC[C@H](NC(=O)[C@H](CC(C)C)NC(=O)[C@H](CCCCN)NC(=O)[C@@H](NC(=O)[C@@H]1CCCN1C(=O)[C@H](NC(=O)[C@H](CC(=O)O)NC(=O)[C@H](CC(C)C)NC(=O)[C@H](CO)NC(=O)[C@H](CC(C)C)NC(=O)[C@@H](NC(=O)[C@@H](N)[C@@H](C)CC)C(C)C)C(C)C)[C@@H](C)O)C(=O)N[C@@H](CCCCN)C(=O)N[C@@H](CCCCN)C(=O)N[C@@H](CC(C)C)C(=O)N[C@@H](CC(C)C)C(=O)N[C@@H](CCCCN)C(=O)N[C@@H](CCC(N)=O)C(=O)N[C@@H](CCC(=O)O)C(=O)N[C@@H](CCCNC(=N)N)C(=O)N[C@@H](CCCCN)C(=O)N[C@@H](CCCNC(=N)N)C(=O)N[C@@H](CCCCN)C(=O)N[C@@H](CCC(=O)O)C(=O)N[C@@H](CCCNC(=N)N)C(=O)N[C@@H](CCC(=O)O)C(=O)NC(C)(C)C(=O)N[C@@H](C)C(=O)N[C@@H](CCC(=O)O)C(=O)N[C@@H](CCCCN)C(=O)N[C@@H](CC(N)=O)C(=O)N[C@@H](C)C(=O)N[C@@H](CCCNC(=N)N)C(=O)N[C@H](C(=O)N[C@@H](CC(C)C)C(=O)N[C@@H](CCC(=O)O)C(=O)N[C@@H](CCCNC(=N)N)C(=O)N[C@H](C(N)=O)C(C)C)[C@@H](C)CC)C(=O)O) [peptide of SEQ ID NO: 26] | > 100 | 0.6
4 | IVLSLD[dV]PTKLK([γGlu-Palmitoyl])KKLLKQERKRKEREQAEKNARILERV-NH2 (N-terminus assumed; SMILES CCCCCCCCCCCCCCCC(=O)N[C@@H](CCC(=O)NCCCC[C@H](NC(=O)[C@H](CC(C)C)NC(=O)[C@H](CCCCN)NC(=O)[C@@H](NC(=O)[C@@H]1CCCN1C(=O)[C@H](NC(=O)[C@H](CC(=O)O)NC(=O)[C@H](CC(C)C)NC(=O)[C@H](CO)NC(=O)[C@H](CC(C)C)NC(=O)[C@@H](NC(=O)[C@@H](N)[C@@H](C)CC)C(C)C)C(C)C)[C@@H](C)O)C(=O)N[C@@H](CCCCN)C(=O)N[C@@H](CCCCN)C(=O)N[C@@H](CC(C)C)C(=O)N[C@@H](CC(C)C)C(=O)N[C@@H](CCCCN)C(=O)N[C@@H](CCC(N)=O)C(=O)N[C@@H](CCC(=O)O)C(=O)N[C@@H](CCCNC(=N)N)C(=O)N[C@@H](CCCCN)C(=O)N[C@@H](CCCNC(=N)N)C(=O)N[C@@H](CCCCN)C(=O)N[C@@H](CCC(=O)O)C(=O)N[C@@H](CCCNC(=N)N)C(=O)N[C@@H](CCC(=O)O)C(=O)N[C@@H](CCC(N)=O)C(=O)N[C@@H](C)C(=O)N[C@@H](CCC(=O)O)C(=O)N[C@@H](CCCCN)C(=O)N[C@@H](CC(N)=O)C(=O)N[C@@H](C)C(=O)N[C@@H](CCCNC(=N)N)C(=O)N[C@H](C(=O)N[C@@H](CC(C)C)C(=O)N[C@@H](CCC(=O)O)C(=O)N[C@@H](CCCNC(=N)N)C(=O)N[C@H](C(N)=O)C(C)C)[C@@H](C)CC)C(=O)O) [peptide of SEQ ID NO: 27] | > 100 | 34.2

Second part, the binder after the results:

Row | EC50 [nM] 0% HSA (cAMP, HTRF) [nM] | Emax (%) (100% = Sauvagine at 100 nM) | Binder
5 | > 100 | 14.5 | IVLSLD[dV]PTKLK([γGlu-Palmitoyl])KKLLKQERKRKEREQAEKAARILERV-NH2 (N-terminus assumed; SMILES CCCCCCCCCCCCCCCC(=O)N[C@@H](CCC(=O)NCCCC[C@H](NC(=O)[C@H](CC(C)C)NC(=O)[C@H](CCCCN)NC(=O)[C@@H](NC(=O)[C@@H]1CCCN1C(=O)[C@H](NC(=O)[C@H](CC(=O)O)NC(=O)[C@H](CC(C)C)NC(=O)[C@H](CO)NC(=O)[C@H](CC(C)C)NC(=O)[C@@H](NC(=O)[C@@H](N)[C@@H](C)CC)C(C)C)C(C)C)[C@@H](C)O)C(=O)N[C@@H](CCCCN)C(=O)N[C@@H](CCCCN)C(=O)N[C@@H](CC(C)C)C(=O)N[C@@H](CC(C)C)C(=O)N[C@@H](CCCCN)C(=O)N[C@@H](CCC(N)=O)C(=O)N[C@@H](CCC(=O)O)C(=O)N[C@@H](CCCNC(=N)N)C(=O)N[C@@H](CCCCN)C(=O)N[C@@H](CCCNC(=N)N)C(=O)N[C@@H](CCCCN)C(=O)N[C@@H](CCC(=O)O)C(=O)N[C@@H](CCCNC(=N)N)C(=O)N[C@@H](CCC(=O)O)C(=O)N[C@@H](CCC(N)=O)C(=O)N[C@@H](C)C(=O)N[C@@H](CCC(=O)O)C(=O)N[C@@H](CCCCN)C(=O)N[C@@H](C)C(=O)N[C@@H](C)C(=O)N[C@@H](CCCNC(=N)N)C(=O)N[C@H](C(=O)N[C@@H](CC(C)C)C(=O)N[C@@H](CCC(=O)O)C(=O)N[C@@H](CCCNC(=N)N)C(=O)N[C@H](C(N)=O)C(C)C)[C@@H](C)CC)C(=O)O) [peptide of SEQ ID NO: 30]
6 | > 100 | 2.3 | IVLSLDVPIKLK([AEEA-AEEA-γGlu-C18 diacid])QILLKQERQKKQREKAKTN[Aib]QILAQV-NH2 (N-terminus assumed; SMILES CC[C@H](C)[C@H](N)C(=O)N[C@H](C(=O)N[C@@H](CC(C)C)C(=O)N[C@@H](CO)C(=O)N[C@@H](CC(C)C)C(=O)N[C@@H](CC(=O)O)C(=O)N[C@H](C(=O)N1CCC[C@H]1C(=O)N[C@H](C(=O)N[C@@H](CCCCN)C(=O)N[C@@H](CC(C)C)C(=O)N[C@@H](CCCCNC(=O)COCCOCCNC(=O)COCCOCCNC(=O)CC[C@H](NC(=O)CCCCCCCCCCCCCCCCC(=O)O)C(=O)O)C(=O)N[C@@H](CCC(N)=O)C(=O)N[C@H](C(=O)N[C@@H](CC(C)C)C(=O)N[C@@H](CC(C)C)C(=O)N[C@@H](CCCCN)C(=O)N[C@@H](CCC(N)=O)C(=O)N[C@@H](CCC(=O)O)C(=O)N[C@@H](CCCNC(=N)N)C(=O)N[C@@H](CCC(N)=O)C(=O)N[C@@H](CCCCN)C(=O)N[C@@H](CCCCN)C(=O)N[C@@H](CCC(N)=O)C(=O)N[C@@H](CCCNC(=N)N)C(=O)N[C@@H](CCC(=O)O)C(=O)N[C@@H](CCCCN)C(=O)N[C@@H](C)C(=O)N[C@@H](CCCCN)C(=O)N[C@H](C(=O)N[C@@H](CC(N)=O)C(=O)NC(C)(C)C(=O)N[C@@H](CCC(N)=O)C(=O)N[C@H](C(=O)N[C@@H](CC(C)C)C(=O)N[C@@H](C)C(=O)N[C@@H](CCC(N)=O)C(=O)N[C@H](C(N)=O)C(C)C)[C@@H](C)CC)[C@@H](C)O)[C@@H](C)CC)[C@@H](C)CC)C(C)C)C(C)C) [peptide of SEQ ID NO: 88]

Reference: US12679878B2, “CRF2 receptor agonists and their use in therapy” (SANOFI, priority 2020, dated 2026)
